Holding throughout (assay): FRET or BRET; BRET saturation in live HEK293T cells; fixed Rluc donor plasmid (10 ng), increasing eYFP acceptor plasmid (0 to 500 ng); coelenterazine H; BRET50 as relative affinity
Conditions in all cases: partners not purified
(In general: BRET reads energy transfer from a luciferase to a nearby fluorophore.)

In one test the target is T1, Rluc-Vpr (WT) (HIV-1, UniProt P05928 1-96).
T1 construct: BRET donor; also called pCDNA3.1-Rluc-Vpr (WT); source: HEK293T, transfected, in live cells; not shown: renilla luciferase (Rluc), N-terminal, kept
T1 sequence: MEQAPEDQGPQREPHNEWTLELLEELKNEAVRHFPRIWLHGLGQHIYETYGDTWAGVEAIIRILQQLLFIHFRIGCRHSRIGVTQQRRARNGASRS

A further test has as its target T2, Rluc-Vpr (Q65R) (HIV-1, UniProt P05928 1-96, Q65R).
T2 construct: BRET donor; also called the Q65R mutant; pCDNA3.1-Rluc-Vpr (Q65R); source: HEK293T, transfected, in live cells; not shown: renilla luciferase (Rluc), N-terminal, kept
T2 sequence: T1 sequence with Q65R

The next test deals with T3, Rluc-Vpr (R80A) (HIV-1, UniProt P05928 1-96, R80A).
T3 construct: BRET donor; also called the R80A mutant; pCDNA3.1-Rluc-Vpr (R80A); source: HEK293T, transfected, in live cells; not shown: renilla luciferase (Rluc), N-terminal, kept
T3 sequence: T1 sequence with R80A

Residue numbers refer to the chain shown, from its start.

B1: eYFP-Vpr (WT) (natural protein)
chain: T1 sequence
notes: BRET acceptor; also called wild type eYFP-Vpr; pCDNA3.1-eYFP-Vpr(WT); source: HEK293T, transfected, in live cells; not shown: eYFP, N-terminal, kept
Regarding B1, the values for the BRET50 in the test with Rluc-Vpr (WT), in the test with Rluc-Vpr (Q65R) and with Rluc-Vpr (R80A) were 0.397 fluorescence/luminescence, 0.791 fluorescence/luminescence and 0.326 fluorescence/luminescence, respectively.

The record behind these values is publication PMC2932712, “Formation of Mobile Chromatin-Associated Nuclear Foci Containing HIV-1 Vpr and VPRBP Is Critical for the Induction of G2 Cell Cycle Arrest” (PLoS Pathogens, 2010).
